In one series the target is YB-1 (WT) (UniProt P67809 1-324). The series is described as follows: EMSA and filter binding.
The target of a further series is YB-1 (1-219), truncated (UniProt P67809 1-219). Kind of series: EMSA and filter binding.

We go through one molecule from article PMC3905071.

Chain of YB-1 (1-219), truncated (P67809 1-219): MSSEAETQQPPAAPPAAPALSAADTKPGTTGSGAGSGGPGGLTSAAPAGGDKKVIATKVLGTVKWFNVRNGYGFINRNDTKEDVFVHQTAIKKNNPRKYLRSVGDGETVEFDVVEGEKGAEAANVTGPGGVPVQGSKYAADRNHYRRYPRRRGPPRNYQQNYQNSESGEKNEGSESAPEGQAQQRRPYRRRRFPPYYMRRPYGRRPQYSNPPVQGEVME
Chain of YB-1 (WT) (P67809 whole entry, the tested form may be a part): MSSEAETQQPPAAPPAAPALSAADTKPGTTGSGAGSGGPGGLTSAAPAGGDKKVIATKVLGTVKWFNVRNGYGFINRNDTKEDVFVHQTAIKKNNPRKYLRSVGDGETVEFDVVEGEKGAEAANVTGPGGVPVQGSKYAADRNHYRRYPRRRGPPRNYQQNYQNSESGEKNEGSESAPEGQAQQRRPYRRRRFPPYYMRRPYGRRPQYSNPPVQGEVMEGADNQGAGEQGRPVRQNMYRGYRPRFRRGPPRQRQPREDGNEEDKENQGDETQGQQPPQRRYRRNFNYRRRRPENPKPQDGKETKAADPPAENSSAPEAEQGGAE

AAACTGATTGGCCAAAAA (ssDNA) [18-nt Y-box ssDNA]: the binding result in the series with YB-1 (WT) is listed as “binds”; with YB-1 (1-219), truncated, “binds”.
